The results in this text go back to PMC7682986, “Talin-activated vinculin interacts with branched actin networks to initiate bundles” (eLife, 2020).

The target in the experiment is T1, full-length human vinculin (human, UniProt P18206-2 1-1066, Alexa Fluor 488 maleimide on cysteines (30% Alexa488-labeled monomers in the TIRFM assay on patterns)).
T1 construct: human vinculin, cDNA isolated from the human A431 cell line, PCR product of 1066 amino acids; FX cloning and 3C cleavage may leave a few extra residues at the ends; also called VCL; source: Sf9 insect cells (baculovirus), purified (Ni IMAC, 3C protease cleavage on the resin, Superdex 200); not shown: GFP, C-terminal, cleaved; 10xHis, C-terminal, cleaved
T1 sequence (looked up): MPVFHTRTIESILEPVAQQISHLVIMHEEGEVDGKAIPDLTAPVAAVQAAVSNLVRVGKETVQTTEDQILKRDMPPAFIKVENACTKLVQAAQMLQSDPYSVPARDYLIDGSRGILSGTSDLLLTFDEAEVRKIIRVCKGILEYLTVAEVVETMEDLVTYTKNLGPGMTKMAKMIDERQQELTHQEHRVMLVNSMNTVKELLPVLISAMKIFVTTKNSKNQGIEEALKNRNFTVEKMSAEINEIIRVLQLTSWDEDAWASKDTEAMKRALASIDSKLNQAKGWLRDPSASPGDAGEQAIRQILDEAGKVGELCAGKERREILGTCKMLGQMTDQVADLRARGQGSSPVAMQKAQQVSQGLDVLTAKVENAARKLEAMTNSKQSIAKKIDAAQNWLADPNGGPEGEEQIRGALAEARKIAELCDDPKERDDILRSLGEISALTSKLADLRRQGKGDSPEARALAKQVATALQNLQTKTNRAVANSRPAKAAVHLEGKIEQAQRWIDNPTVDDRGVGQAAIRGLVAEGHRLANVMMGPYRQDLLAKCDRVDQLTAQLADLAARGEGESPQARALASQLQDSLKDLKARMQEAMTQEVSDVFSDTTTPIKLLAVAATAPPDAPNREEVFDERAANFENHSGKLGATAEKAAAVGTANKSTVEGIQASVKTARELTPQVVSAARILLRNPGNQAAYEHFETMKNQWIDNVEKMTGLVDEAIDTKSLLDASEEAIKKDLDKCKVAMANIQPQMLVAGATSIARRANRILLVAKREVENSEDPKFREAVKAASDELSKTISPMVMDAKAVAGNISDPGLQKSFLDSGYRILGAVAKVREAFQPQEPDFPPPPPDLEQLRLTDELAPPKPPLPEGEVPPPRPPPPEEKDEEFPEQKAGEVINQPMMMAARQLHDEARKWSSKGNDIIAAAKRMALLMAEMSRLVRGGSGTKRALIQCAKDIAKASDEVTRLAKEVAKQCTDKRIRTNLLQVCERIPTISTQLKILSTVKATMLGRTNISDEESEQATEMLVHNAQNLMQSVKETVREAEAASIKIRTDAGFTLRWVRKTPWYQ
The experiment can be described thus: TIRF microscopy on protein-coated micropatterns; micropatterns coated with 0.4 µM GST-talin VBS1 (control patterns with BSA); flow of 300 nM inactive vinculin (Alexa488), 0.3 µM actin, Arp2/3 complex and 80 nM WAVE WA; 20 mM Hepes pH 7.0, 40 mM KCl, 0.4% methylcellulose, 0.2% BSA. The following applies: both partners purified.

B1: GST-talin VBS1 (human talin 1 vinculin-binding site 1, residues 482–636) (domain or fragment, UniProt Q9Y490 482-636, looked up)
chain: RGHMPPLTSAQQALTGTINSSMQAVQAAQATLDDFDTLPPLGQDAASKAWRKNKMDESKHEIHSQVDAITAGTASVVNLTAGDPAETDYTAVGCAVTTISSNLTEMSRGVKLLAALLEDEGGSGRPLLQAAKGLAGAVSELLRSAQPASAEPRQN
notes: construct from C; Le Clainche; Coated on micropatterns as GST-talin VBS1; also called GST-VBS1; VBS1-GST; source: E. coli BL21 (DE3)pLysS, purified (glutathione-Sepharose)
Consider B1, for which the binding result was “binds”.
